Measured values taken from IntAct's records for PubMed 35512704.

B1: Mothers against decapentaplegic homolog 4 (Homo sapiens), Q13485 (parent)
chain: MDNMSITNTPTSNDACLSIVHSLMCHRQGGESETFAKRAIESLVKKLKEKKDELDSLITAITTNGAHPSKCVTIQRTLDGRLQVAGRKGFPHVIYARLWRWPDLHKNELKHVKYCQYAFDLKCDSVCVNPYHYERVVSPGIDLSGLTLQSNAPSSMMVKDEYVHDFEGQPSLSTEGHSIQTIQHPPSNRASTETYSTPALLAPSESNATSTANFPNIPVASTSQPASILGGSHSEGLLQIASGPQPGQQQNGFTGQPATYHHNSTTTWTGSRTAPYTPNLPHHQNGHLQHHPPMPPHPGHYWPVHNELAFQPPISNHPAPEYWCSIAYFEMDVQVGETFKVPSSCPIVTVDGYVDPSGGDRFCLGQLSNVHRTEAIERARLHIGKGVQLECKGEGDVWVRCLSDHAVFVQSYYLDREAGRAPGDAVHKIYPSAYIKVFDLRQCHRQMQQQAATAQAAAAAQAAAVAGNIPGPGSVGGIAPAISLSAAAGIGVDDLRRLCILRMSFVKGWGPDYPRQSIKETPCWIEIHLHRALQLLDEVLHTMPIADPQPLD
partner: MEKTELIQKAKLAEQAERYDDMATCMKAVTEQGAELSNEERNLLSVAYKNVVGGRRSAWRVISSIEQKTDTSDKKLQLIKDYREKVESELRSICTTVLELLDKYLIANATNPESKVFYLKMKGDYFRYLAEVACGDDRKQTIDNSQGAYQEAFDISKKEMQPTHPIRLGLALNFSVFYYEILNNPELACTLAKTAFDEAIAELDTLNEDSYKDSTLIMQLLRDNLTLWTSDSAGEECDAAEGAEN
B2: Mothers against decapentaplegic homolog 4 (Homo sapiens), Q13485 (parent)
chain: B1 chain
partner: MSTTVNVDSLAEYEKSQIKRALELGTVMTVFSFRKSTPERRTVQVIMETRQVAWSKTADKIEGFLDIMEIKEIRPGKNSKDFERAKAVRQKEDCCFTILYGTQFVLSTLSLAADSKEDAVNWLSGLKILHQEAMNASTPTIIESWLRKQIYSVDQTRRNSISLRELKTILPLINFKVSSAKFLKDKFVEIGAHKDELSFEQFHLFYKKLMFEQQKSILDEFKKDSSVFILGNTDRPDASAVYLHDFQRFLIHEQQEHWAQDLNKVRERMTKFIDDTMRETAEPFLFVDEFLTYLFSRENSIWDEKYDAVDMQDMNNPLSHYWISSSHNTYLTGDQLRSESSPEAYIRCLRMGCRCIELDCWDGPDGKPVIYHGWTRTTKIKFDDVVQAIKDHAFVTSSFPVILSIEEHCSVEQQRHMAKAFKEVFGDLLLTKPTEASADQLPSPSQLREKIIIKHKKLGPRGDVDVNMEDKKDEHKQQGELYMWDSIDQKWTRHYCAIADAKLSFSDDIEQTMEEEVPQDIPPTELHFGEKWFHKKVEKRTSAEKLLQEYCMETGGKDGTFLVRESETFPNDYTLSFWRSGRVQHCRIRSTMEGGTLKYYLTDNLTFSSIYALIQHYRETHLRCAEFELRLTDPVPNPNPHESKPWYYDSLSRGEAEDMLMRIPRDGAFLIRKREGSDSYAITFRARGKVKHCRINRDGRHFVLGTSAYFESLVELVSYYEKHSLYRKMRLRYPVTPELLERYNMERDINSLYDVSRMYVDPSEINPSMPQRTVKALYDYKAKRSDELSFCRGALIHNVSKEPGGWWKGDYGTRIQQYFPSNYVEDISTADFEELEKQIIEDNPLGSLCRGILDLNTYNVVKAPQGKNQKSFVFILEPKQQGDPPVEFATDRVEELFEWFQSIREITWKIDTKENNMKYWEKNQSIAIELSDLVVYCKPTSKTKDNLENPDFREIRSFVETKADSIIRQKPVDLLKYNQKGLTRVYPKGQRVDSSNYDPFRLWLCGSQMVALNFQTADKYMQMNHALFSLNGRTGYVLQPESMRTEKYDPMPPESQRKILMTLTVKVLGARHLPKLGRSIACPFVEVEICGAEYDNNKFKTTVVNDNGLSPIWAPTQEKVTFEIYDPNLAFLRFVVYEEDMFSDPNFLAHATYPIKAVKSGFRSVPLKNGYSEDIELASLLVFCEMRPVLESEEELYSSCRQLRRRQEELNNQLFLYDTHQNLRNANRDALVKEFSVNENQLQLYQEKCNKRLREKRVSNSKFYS
B3: Mothers against decapentaplegic homolog 4 (Homo sapiens), Q13485 (parent)
chain: B1 chain
partner: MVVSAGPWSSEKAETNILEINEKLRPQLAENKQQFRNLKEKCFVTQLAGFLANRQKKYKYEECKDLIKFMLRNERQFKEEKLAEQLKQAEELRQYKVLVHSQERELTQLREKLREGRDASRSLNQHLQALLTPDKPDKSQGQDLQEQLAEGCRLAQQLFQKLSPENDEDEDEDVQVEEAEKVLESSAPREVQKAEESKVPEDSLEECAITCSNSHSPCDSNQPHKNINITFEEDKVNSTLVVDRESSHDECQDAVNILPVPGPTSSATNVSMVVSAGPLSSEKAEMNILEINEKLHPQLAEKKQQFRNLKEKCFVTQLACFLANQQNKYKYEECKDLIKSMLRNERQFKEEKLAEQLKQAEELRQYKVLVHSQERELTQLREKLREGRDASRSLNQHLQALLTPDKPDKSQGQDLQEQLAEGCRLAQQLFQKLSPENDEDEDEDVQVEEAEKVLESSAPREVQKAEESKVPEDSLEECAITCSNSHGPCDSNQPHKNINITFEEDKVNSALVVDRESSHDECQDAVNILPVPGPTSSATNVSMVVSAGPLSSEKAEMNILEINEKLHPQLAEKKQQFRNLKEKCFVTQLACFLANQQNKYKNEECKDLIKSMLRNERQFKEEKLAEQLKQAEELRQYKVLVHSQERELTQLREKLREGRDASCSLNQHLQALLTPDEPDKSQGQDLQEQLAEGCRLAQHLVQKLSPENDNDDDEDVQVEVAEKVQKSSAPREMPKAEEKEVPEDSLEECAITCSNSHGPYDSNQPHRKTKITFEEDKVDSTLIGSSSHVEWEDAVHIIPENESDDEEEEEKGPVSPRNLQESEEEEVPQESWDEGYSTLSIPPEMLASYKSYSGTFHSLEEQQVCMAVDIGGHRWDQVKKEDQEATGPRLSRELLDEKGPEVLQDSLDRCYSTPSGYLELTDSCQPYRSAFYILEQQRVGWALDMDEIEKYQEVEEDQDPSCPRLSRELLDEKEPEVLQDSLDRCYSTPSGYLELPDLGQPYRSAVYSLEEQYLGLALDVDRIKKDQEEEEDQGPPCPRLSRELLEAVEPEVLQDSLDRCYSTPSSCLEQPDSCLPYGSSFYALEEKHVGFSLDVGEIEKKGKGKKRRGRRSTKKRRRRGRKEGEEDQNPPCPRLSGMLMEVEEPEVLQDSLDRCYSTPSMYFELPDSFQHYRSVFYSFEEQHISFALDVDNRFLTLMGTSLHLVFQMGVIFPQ
B4: Mothers against decapentaplegic homolog 4 (Homo sapiens), Q13485 (parent)
chain: B1 chain
partner: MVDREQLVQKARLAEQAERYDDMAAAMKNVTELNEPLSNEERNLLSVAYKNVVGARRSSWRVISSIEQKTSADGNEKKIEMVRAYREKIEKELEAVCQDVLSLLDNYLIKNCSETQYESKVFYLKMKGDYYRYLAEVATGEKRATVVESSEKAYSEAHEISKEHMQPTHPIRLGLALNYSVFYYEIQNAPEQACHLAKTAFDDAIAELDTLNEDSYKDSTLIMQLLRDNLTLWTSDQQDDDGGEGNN
B5: Mothers against decapentaplegic homolog 4 (Homo sapiens), Q13485 (parent)
chain: B1 chain
partner: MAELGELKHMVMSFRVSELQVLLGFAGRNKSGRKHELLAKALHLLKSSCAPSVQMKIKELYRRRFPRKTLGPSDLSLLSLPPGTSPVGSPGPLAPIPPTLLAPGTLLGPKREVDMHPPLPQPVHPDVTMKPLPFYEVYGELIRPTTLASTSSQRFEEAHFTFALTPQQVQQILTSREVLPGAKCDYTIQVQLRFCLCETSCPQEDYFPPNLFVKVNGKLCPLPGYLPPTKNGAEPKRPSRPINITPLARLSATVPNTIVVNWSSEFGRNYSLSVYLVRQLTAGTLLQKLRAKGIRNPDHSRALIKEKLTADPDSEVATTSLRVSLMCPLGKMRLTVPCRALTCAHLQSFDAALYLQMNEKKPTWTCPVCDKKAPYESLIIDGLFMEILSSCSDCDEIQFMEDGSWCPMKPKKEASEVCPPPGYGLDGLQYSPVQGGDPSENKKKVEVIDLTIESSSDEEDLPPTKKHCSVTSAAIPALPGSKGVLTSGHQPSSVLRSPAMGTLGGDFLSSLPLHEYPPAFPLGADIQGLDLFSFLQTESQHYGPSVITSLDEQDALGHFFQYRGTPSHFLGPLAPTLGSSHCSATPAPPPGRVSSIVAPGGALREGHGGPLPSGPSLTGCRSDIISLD
B6: Mothers against decapentaplegic homolog 4 (Homo sapiens), Q13485 (parent)
chain: B1 chain
partner: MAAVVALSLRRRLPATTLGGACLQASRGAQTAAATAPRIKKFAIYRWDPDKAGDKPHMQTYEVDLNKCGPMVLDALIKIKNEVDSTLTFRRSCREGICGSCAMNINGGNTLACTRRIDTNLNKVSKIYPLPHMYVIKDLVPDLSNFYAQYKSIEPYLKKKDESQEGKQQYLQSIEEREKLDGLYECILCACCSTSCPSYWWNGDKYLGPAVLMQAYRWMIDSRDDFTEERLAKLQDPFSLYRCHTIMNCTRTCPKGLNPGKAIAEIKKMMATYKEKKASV
B7: Speckle-type POZ protein (Homo sapiens), O43791 (parent)
chain: MSRVPSPPPPAEMSSGPVAESWCYTQIKVVKFSYMWTINNFSFCREEMGEVIKSSTFSSGANDKLKWCLRVNPKGLDEESKDYLSLYLLLVSCPKSEVRAKFKFSILNAKGEETKAMESQRAYRFVQGKDWGFKKFIRRDFLLDEANGLLPDDKLTLFCEVSVVQDSVNISGQNTMNMVKVPECRLADELGGLWENSRFTDCCLCVAGQEFQAHKAILAARSPVFSAMFEHEMEESKKNRVEINDVEPEVFKEMMCFIYTGKAPNLDKMADDLLAAADKYALERLKVMCEDALCSNLSVENAAEILILADLHSADQLKTQAVDFINYHASDVLETSGWKSMVVSHPHLVAEAYRSLASAQCPFLGPPRKRLKQS
partner: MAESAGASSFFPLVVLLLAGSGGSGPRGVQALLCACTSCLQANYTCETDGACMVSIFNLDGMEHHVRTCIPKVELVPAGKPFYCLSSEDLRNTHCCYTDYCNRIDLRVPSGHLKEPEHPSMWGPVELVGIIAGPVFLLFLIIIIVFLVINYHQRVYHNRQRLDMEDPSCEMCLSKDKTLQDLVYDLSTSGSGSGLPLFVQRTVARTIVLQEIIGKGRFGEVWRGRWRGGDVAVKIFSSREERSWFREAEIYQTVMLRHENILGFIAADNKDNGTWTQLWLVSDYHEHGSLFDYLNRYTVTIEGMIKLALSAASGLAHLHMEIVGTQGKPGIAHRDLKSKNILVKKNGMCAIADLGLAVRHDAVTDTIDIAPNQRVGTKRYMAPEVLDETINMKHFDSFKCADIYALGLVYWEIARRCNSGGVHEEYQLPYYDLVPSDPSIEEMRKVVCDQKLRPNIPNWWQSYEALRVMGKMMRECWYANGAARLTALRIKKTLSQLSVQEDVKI

Variants of: B1
Details: with 1433t_human YWHAQ

effect of a mutation on the interaction | Variant
with no effect | D351H

Variants of: B2
Details: with plcg2_human PLCG2, P16885

effect of a mutation on the interaction | Variant
with no effect | R361C

Variants of: B3
Details: with nbpf1_human NBPF1, Q3BBV0

effect of a mutation on the interaction | Variant
with no effect | G386D

Variants of: B4
Details: with 1433g_human YWHAG

effect of a mutation on the interaction | Variant
with no effect | R361C

Variants of: B4
Details: with 1433g_human YWHAG
Remark: another data set of the same source

effect of a mutation on the interaction | Variant
with no effect | D351H

Variants of: B5
Details: with pias3_human PIAS3, Q9Y6X2

effect of a mutation on the interaction | Variant
with no effect | G386D

Variants of: B5
Details: with pias3_human PIAS3, Q9Y6X2
Remark: another data set of the same source

effect of a mutation on the interaction | Variant
increasing interaction strength | G386D

Variants of: B6
Details: with sdhb_human SDHB

effect of a mutation on the interaction | Variant
with no effect | G386D

Variants of: B6
Details: with sdhb_human SDHB
Remark: another data set of the same source

effect of a mutation on the interaction | Variant
increasing interaction strength | G386D

Variants of: B6
Details: with sdhb_human SDHB
Remark: another data set of the same source

effect of a mutation on the interaction | Variant
with no effect | R361C

Variants of: B7
Details: with acv1b_human ACVR1B

effect of a mutation on the interaction | Variant
with no effect | F133L

Variants of: B7
Details: with acv1b_human ACVR1B
Remark: another data set of the same source

effect of a mutation on the interaction | Variant
with no effect | F133V
